Paper PMC5495134

What was measured:
[1] = biological target: Mth1491 homotrimer with a cysteine introduced at position 92, modified with azo maleimide 3 (Methanobacterium thermoautotrophicum); assay: affinity chromatography on beta-cyclodextrin resin with LC-MS of fractions; Mth1491 modified to about 50% with azo maleimide 3, eluted from a column packed with resin 4 (beta-cyclodextrin on sepharose CL-4B); four peaks for the modification states of the trimer; isolated singly and doubly modified species repurified; trimer disassembles upon LC-MS
[2] = biological target: Mth1491 homotrimer with a cysteine introduced at position 92, tagged, azo-cleaved, AF-labelled and protected with Ellman's reagent (Methanobacterium thermoautotrophicum); assay: dynamic light scattering; average particle size before and after protection with Ellman's reagent (5.5 ± 0.3 nm to 7.4 ± 0.9 nm)

Substance	stoichiometry N [1]	stoichiometry N [2]
Mth1491 homotrimer with a cysteine introduced at position 92, modified with azo maleimide 3 (natural protein)	3	
Mth1491 homotrimer with a cysteine introduced at position 92, tagged, azo-cleaved, AF-labelled and protected with Ellman's reagent (natural protein)		3
